From patent US20250136710A1 (published 2025)
Where two headings read alike, the source gives them in different places.

Columns and labels:
Experiment in all cases: FACS
[1] = biological target: T1, TIGIT (human, UniProt Q495A1 22-141)
T1 chain: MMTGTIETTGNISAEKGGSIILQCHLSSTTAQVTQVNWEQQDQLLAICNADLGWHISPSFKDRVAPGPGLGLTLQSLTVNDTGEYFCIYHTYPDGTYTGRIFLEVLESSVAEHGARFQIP

[2] = biological target: T2, cynomolgus TIGIT (cynomolgus macaque, UniProt A0A7N9I9V4 89-209)
[3] = biological target: T3, cynomolgus macaque PVRIG expressed on HEK293 cells (cynomolgus macaque, UniProt A0A2K5WVV8 1-322)
T3 chain: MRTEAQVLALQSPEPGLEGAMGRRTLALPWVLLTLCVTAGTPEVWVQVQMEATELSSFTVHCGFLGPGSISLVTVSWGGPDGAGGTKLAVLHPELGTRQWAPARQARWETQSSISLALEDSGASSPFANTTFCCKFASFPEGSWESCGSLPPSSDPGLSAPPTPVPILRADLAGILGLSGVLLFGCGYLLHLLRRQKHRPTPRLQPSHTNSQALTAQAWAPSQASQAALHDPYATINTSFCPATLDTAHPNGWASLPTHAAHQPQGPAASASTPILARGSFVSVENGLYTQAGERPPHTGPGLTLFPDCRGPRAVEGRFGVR

[4] = biological target: T2, cynomolgus TIGIT; remark: listed apart in the source
[5] = biological target: T3, cynomolgus macaque PVRIG expressed on …
[6] = biological target: T1, TIGIT
[7] = biological target: T4, mouse TIGIT (mouse, UniProt P86176 29-148)
T4 chain: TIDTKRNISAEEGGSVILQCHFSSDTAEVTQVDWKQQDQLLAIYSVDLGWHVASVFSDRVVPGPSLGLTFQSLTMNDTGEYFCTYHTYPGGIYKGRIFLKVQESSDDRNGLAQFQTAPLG

T2 sequence (A0A7N9I9V4 entry or part of it): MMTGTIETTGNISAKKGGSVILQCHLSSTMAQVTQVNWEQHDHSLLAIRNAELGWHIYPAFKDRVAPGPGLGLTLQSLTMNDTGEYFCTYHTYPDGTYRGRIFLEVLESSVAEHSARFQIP

B1: CPA.9.547.13 (antibody, V domains shown)
VH: EVQLVESGGGLVQPGGSLRLSCAASGFTFSSYIMSWVRQAPGKGLEWVATISGGGTNTYYADSVKGRFTISRDNSKNTLYLQMNSLRAEDTAVYYCAKWLLSYYAMDYWGQGTLVTVSS
VL: DIQMTQSPSSLSASVGDRITITCRASQNINVWLTWYQQKPGKAPKLLIYKASKSHTGVPSRFSGSGSGTDFTLTISSLQPEDFATYYCQQGQSYPYTFGQGTKLEIKR
B1 gave a Kd [1] of 0.71 nM and a Kd [2] of 1.67 nM.

B2: CHA.7.518.1 (antibody, V domains shown)
VH: QVQLVQSGAEVKKPGASVKVSCKASGYTFTDYNINWVRQAPGQGLEWMGYIYPYIGGSGYAQKFQGRVTMTRDTSTSTVYMELSSLRSEDTAVYYCAREDKTARNAMDYWGQGTLVTVSS
VL: DIQMTQSPSSLSASVGDRVTITCRVSENIYSNLAWYQQKPGKAPKLLIYEATNLAEGVPSRFSGSGSGTDFTLTISSLQPEDFATYYCQHFWGTPYTFGQGTKLEIKR
Work on B2 yielded a Kd [3] of 0.35 nM.

B3: BM26 (antibody, V domains shown)
VH: EVQLQQSGPELVKPGSSVKMSCKASGYTFSSYVMHWVKQKPGQGLEWIGYIDPYNDGAKYNEKFKGKATLTSDKSSSTAYMELSSLTSEDSAVYYCARGGPYGWYFDVWGAGTTVTVSS
VL: DIQMTQSPASLSASVGETVTITCRASEHIYSYLSWYQQKQGKSPQLLVYNAKTLAEGVPSRFSGSGSGTQFSLKINSLQPEDFGTYYCQHHFGSPLTFGAGTTLELKR
For B3, the Kd [4] was 1.69 nM.

B4: PVRIG (COM701) (antibody, V domains shown)
VH: QVQLVQSGAEVKKPGASVKVSCKASGYAFTNYLIEWVRQAPGQGLEWIGVINPGSGGIYYAQKFQGRVTMTADTSTSTVYMELSSLRSEDTAVYYCARSETHDTWFAYWGQGTLVTVSS
VL: DIQMTQSPSSLSASVGDRVTITCKASQSVRIAVAWFQQKPGKAPKALIYLASTRHTGVPSRFSGSGSGTDFTLTISSVQPEDFATYYCLQHWNYPYTFGQGTKLEIKR
In the case of B4, the Kd [5] is reported as 0.248 nM.

B5: CHA.9.547.7 (antibody, V domains shown)
VH: EVQLVESGGGLVQPGGSLRLSCAASGFTFSSYIMSWVRQAPGKGLEWVSTISGGGTNTYYADSVKGRFTISRDNSKNTLYLQMNSLRAEDTAVYYCAKWLLSYYAMDYWGQGTLVTVSS
VL: DIQMTQSPSSLSASVGDRVTITCRASQNINVWLTWYQQKPGKAPKLLIYKASKSHTGVPSRFSGSGSGTDFTLTISSLQPEDFATYYCQQGQSYPYTFGQGTKLEIKR
For B5, the Kd [4] was 1.54 nM and the Kd [6] was 1.82 nM.

B6: CPA.9.083 (antibody, V domains shown)
VH: EVQLVETGGGLIQPGRSLRLSCAASGFTFSSYAMHWVRQAPGKGLEWVAVISYDGTPVYYADSVKGRFTISRDNSKNTLYLQMNSLRAEDTAVYYCARDPLPLHYYGMDVWGQGTTVTVSS
VL: QSALTQPRSASGNPGQRVTISCSGSSSNMGRRPVNWYQQIPGTAPKLLIYSQNQRPSGVPDRFSGSQSGTSASLTISGLQSEDEAEYFCAVWDGDRRSLQLGGGTQLAVLG
For B6, the Kd [7] was 0.7 nM.

B7: CPA.9.086 (antibody, V domains shown)
VH: EVQLVETGGGLIQPGRSLRLSCAASGFTFSSYAMHWVRQAPGKGLEWVAVISYAGEVKYYADSVKGRFTISRDNSKNTLYLQMNSLRAEDTAVYYCARDPLPLHYYGMDVWGQGTTVTVSS
VL: QSALTQPRSASGNPGQRVTISCSGSSSNMGRRPVNWYQQIPGTAPKLLIYSQNQRPSGVPDRFSGSQSGTSASLTISGLQSEDEAEYFCAVWDDIGRVLQLGGGTQLAVLG
B7 was tested, and the Kd [7] was 1.32 nM.
